# Key:
# [1] = target: T1, hOrai1-mOrai1 ECL2 (SKPPA) protein (human/mouse chimera, UniProt Q96D31 1-301); experiment: FACS, 293EBNA, RFI-POC grade; parameters: concentration or dose not given beside the values
# T1 construct: also called Ch
# [2] = target: T2, hOrai1-mOrai1 ECL2 (…) protein (human/mouse chimera, UniProt Q96D31 1-301); experiment: FACS, 293EBNA, RFI-POC grade; parameters: concentration or dose not given beside the values
# T2 construct: also called Ch
# [3] = target: T3, human Orai1 (human, UniProt Q96D31 1-301); experiment: FACS Kd, AM1-CHO/hOrai1/hSTIM1-YFP cells
# T3 construct: on AM1-CHO/hOrai1/hSTIM1-YFP, AM1/hOrai1, HEK-293 transfectants, endogenous on Jurkat and blood cells; in Westerns from cell lysates; also called hOrai1; CRACM1
# T3 sequence (Q96D31 whole entry): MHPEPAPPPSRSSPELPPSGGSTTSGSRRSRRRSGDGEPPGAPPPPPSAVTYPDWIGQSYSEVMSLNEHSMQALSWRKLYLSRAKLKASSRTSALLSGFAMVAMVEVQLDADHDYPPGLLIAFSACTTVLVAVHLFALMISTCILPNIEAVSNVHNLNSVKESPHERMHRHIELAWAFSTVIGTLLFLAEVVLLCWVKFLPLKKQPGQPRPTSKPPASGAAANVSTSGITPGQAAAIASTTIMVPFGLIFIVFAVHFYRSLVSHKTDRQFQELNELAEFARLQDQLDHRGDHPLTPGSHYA
# Protocol: The equilibrium plates were centrifuged at 500 g for 3 minutes and cell pellets were washed twice with 200 μL of ice cold FACS buffer (1×D-PBS+2% FBS). The cells were then incubated with a secondary antibody, goat anti-human Fc Cy5 at 5 μg/mL and 100 μL per well for 1 h on ice in the dark. Following the incubation, the cells were washed twice with 200 μL of ice-cold FACS buffer before flow cytometry analysis. The GeoMean values gated on live cell population measure the bound [Ab]. The inverse of the GeoMean values that reflects theoretical free [Ag] in the equilibrium solution was then calculated. The inverse values of the GeoMean read were used in KinExA® Pro software for analysis and Kd calculation for each antibody. The free [Ag] measure was plotted against the starting concentration of titrating component and from these plots at two different cell concentrations the Kd was obtained from curve fitting using n-curve analysis in KinExA Pro software. […] Shown in Table 14 (below) are the equilibrium dissociation constant (Kd) values of invented mAbs determined by FACS Kd measurement.
# [4] = target: T4, mOrai1-hOrai1 ECL2 (KPPAE) protein (human/mouse chimera, UniProt Q8BWG9 1-304 (mouse entry)); experiment: FACS, 293EBNA; parameters: concentration or dose not given beside the values
# T4 construct: also called Ch
# T4 sequence (Q8BWG9 other isoform, or with tags, fused parts or gaps): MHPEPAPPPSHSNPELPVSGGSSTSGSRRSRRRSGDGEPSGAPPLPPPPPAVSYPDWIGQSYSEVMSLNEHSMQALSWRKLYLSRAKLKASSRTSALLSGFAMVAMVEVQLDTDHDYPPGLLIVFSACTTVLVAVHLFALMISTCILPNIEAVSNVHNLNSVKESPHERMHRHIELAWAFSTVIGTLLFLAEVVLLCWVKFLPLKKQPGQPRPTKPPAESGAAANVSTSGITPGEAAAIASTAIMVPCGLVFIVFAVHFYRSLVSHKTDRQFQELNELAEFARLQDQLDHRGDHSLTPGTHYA
# From the text: (§1) FIG. 16A-D illustrates the results of FACS analysis showing binding to the indicated mOrai1-hOrai1 ECL2 chimeric mutants expressed on the surface of HEK-293-EBNA cells. Transfected cells were stained first with recombinant monoclonal antibodies then counter-stained with a secondary phycoerythrin-labeled goat (“Gt”) anti-human (“Hu”) IgG F(ab′)₂ antibody fragment and visualized using FACS. In FIG. 16B and FIG. 16D, The values of Relative Fluorescence Intensity as Percent of Control (RFI-POC) are calculated from the relative fluorescence intensity geometric mean (Geo Mean). The geometric mean is an average calculated by multiplying a series of numbers and taking the nth root where n is the number of numbers in the series. It is a statistical average of a set of transformed numbers often used to represent a central tendency in a highly variable data set that minimizes the effects of extreme values.
# (§2) Table 11A and Table 11B feature a schematic representation of the POC data from FIG. 16B and FIG. 16D, respectively, where the binding results are recorded as (+++) denoting binding POC from 40% to 100%, (++) for POC of 5% to less than 40%, (+) for POC from 1% to less than 5% and (−) as lack of binding with POC less than 1%.
# [5] = target: T5, mOrai1-hOrai1 ECL2 (…) protein (human/mouse chimera, UniProt Q8BWG9 1-304 (mouse entry)); experiment: FACS, 293EBNA; parameters: concentration or dose not given beside the values
# T5 construct: also called Ch
# From the text: as §1, §2
# T5 sequence (Q8BWG9 other isoform, or with tags, fused parts or gaps): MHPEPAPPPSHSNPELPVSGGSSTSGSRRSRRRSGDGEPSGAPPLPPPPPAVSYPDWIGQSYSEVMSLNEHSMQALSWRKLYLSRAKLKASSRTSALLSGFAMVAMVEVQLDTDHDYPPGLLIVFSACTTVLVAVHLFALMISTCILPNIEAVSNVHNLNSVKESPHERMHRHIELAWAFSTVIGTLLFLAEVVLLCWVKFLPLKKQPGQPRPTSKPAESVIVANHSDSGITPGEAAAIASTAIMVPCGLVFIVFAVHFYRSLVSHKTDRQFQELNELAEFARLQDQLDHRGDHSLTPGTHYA
# [6] = target: T6, hOrai1-mOrai1 ECL2 chimeric protein (human/mouse chimera, UniProt Q96D31 1-301); experiment: FACS, 293EBNA; parameters: concentration or dose not given beside the values
# T6 construct: human Orai1 with mouse ECL2; also called Ch
# T6 sequence (Q96D31 other isoform, or with tags, fused parts or gaps mutant): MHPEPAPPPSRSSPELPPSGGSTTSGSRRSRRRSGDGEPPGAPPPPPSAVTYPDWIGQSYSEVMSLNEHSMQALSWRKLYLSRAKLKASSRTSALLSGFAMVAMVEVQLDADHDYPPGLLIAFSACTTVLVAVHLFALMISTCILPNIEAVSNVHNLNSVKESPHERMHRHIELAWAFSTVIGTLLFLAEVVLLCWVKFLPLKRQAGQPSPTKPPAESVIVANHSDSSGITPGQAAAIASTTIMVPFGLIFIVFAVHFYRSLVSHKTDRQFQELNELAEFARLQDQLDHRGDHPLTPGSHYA
# From the text: as §1, §2
# [7] = target: T7, mOrai1-hOrai1 ECL2 (…) protein (human/mouse chimera, UniProt Q8BWG9 1-304 (mouse entry)); experiment: FACS, 293EBNA; parameters: concentration or dose not given beside the values; remark: listed apart in the source
# T7 construct: also called Ch
# From the text: as §1, §2
# T7 sequence (Q8BWG9 other isoform, or with tags, fused parts or gaps): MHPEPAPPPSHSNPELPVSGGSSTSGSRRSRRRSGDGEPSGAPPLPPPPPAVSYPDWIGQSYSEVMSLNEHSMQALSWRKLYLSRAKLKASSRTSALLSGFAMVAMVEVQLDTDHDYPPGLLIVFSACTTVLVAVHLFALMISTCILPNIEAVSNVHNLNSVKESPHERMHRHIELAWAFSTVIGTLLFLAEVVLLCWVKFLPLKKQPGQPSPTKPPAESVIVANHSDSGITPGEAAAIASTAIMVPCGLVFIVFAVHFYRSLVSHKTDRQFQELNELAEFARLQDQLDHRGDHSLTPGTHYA
# [8] = target: T8, mOrai1-hOrai1 ECL2 (SPTKPPAE) protein (human/mouse chimera, UniProt Q8BWG9 1-304 (mouse entry)); experiment: FACS, 293EBNA; parameters: concentration or dose not given beside the values
# T8 construct: also called Ch
# T8 sequence (Q8BWG9 other isoform, or with tags, fused parts or gaps): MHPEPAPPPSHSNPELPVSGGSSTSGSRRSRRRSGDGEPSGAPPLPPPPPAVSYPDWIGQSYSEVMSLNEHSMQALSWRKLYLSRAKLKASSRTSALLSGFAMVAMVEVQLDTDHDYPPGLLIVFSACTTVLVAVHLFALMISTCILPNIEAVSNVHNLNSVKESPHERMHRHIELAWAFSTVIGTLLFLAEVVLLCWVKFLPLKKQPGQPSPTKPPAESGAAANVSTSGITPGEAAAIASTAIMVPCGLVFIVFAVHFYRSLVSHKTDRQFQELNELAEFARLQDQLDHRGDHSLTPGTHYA
# From the text: as §1, §2
# [9] = target: T9, mOrai1-hOrai1 ECL2 (…) protein (human/mouse chimera, UniProt Q8BWG9 1-304 (mouse entry)); experiment: FACS, 293EBNA; parameters: concentration or dose not given beside the values; remark: listed apart in the source
# T9 construct: also called Ch
# From the text: as §1, §2
# T9 sequence (Q8BWG9 other isoform, or with tags, fused parts or gaps): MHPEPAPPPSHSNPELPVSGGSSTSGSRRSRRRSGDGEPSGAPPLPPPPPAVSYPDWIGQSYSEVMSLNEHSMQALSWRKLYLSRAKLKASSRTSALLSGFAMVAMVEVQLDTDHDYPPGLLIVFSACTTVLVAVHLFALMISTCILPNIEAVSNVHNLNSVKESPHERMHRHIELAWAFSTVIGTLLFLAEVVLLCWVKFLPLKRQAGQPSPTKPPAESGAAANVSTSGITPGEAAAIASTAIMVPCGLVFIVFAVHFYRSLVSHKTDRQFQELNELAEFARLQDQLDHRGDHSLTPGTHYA
# [10] = target: T10, mOrai1-hOrai1 ECL2 (AESVIV) protein (human/mouse chimera, UniProt Q8BWG9 1-304 (mouse entry)); experiment: FACS, 293EBNA; parameters: concentration or dose not given beside the values
# T10 construct: also called Ch
# T10 sequence (Q8BWG9 other isoform, or with tags, fused parts or gaps): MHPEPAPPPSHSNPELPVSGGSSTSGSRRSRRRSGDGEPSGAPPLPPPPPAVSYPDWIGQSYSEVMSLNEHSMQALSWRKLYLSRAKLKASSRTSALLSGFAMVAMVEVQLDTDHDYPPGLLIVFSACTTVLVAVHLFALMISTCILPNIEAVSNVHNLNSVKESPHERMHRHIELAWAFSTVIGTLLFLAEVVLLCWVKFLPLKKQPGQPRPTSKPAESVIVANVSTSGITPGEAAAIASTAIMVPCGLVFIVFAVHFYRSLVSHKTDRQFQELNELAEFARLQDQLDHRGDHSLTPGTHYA
# From the text: as §1, §2
# [11] = target: T11, mOrai1-hOrai1 ECL2 (…) protein (human/mouse chimera, UniProt Q8BWG9 1-304 (mouse entry)); experiment: FACS, 293EBNA; parameters: concentration or dose not given beside the values; remark: listed apart in the source
# T11 construct: also called Ch
# From the text: as §1, §2
# T11 sequence (Q8BWG9 other isoform, or with tags, fused parts or gaps): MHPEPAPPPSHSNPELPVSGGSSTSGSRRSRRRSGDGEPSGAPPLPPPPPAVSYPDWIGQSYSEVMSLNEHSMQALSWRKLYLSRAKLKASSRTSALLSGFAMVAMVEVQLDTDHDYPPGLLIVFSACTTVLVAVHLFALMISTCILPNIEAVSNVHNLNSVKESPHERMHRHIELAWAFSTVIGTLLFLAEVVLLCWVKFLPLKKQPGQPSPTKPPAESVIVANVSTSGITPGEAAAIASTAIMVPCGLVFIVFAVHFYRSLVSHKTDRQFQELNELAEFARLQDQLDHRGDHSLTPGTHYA
# [12] = target: T6, hOrai1-mOrai1 ECL2 chimeric protein; experiment: FACS, 293EBNA transfectants
# From the text: FIG. 15A-B illustrates the results of FACS analysis showing binding to human Orai1 extracellular loop 2-mouse Orai1 mutant expressed on the surface of HEK-293-EBNA cells. HEK-293-EBNA cells were transiently transfected with mouse Orai1 mutant where human Orai1 extracellular loop 2 replaced the mouse Orai1 extracellular loop 2 and human Orai1 mutant where mouse Orai1 extracellular loop 2 replaced human extracellular loop 2. Transfected cells were stained first with recombinant monoclonal antibodies then counter-stained with a secondary phycoerythrin-labeled goat (“Gt”) anti-human (“Hu”) IgG F(ab′)₂ antibody fragment and visualized using FACS.
# FACS binding analysis. Transfected 293EBNA cells transiently expressed hOrai1-mOrai1 ECL2 or mOrai1-hOrai1 ECL2 chimera. The transfected cells were harvested at 48 hours post-transfection. Cells transfected with pcDNA3.1 were used as negative controls. Cells were washed once with ice-cold 1×PBS, resuspended in ice-cold FACS buffer (1×D-PBS+2% goat serum), and 2×10⁵ cells in 100 μL were stained per antibody combination. All antibody incubation steps were performed on ice for 1 hour. […] Next, the unlabelled antibody was detected using goat F(ab′)₂ anti-mouse or anti-human IgG-phycoerythrin (IgG-PE), followed by a wash with 200 μL of ice-cold FACS buffer before flow cytometry analysis. Unstained cells and cells stained with detecting antibodies were used as negative controls. The values of relative level of fluorescence were calculated using FCS Express (De Novo Software) and mean values were calculated using log-transformed data (geometric mean). The results of the FACS analysis are shown in FIG. 15A-B, which supports the conclusion that the hOrai1 ECL2 domain is the region of hOrai1 where antibodies of the present invention bind.
# [13] = target: T12, mOrai1-hOrai1 ECL2 (VIV) protein (human/mouse chimera, UniProt Q8BWG9 1-304 (mouse entry)); experiment: FACS, 293EBNA, RFI-POC grade; parameters: concentration or dose not given beside the values
# T12 construct: also called Ch
# T12 sequence (Q8BWG9 other isoform, or with tags, fused parts or gaps): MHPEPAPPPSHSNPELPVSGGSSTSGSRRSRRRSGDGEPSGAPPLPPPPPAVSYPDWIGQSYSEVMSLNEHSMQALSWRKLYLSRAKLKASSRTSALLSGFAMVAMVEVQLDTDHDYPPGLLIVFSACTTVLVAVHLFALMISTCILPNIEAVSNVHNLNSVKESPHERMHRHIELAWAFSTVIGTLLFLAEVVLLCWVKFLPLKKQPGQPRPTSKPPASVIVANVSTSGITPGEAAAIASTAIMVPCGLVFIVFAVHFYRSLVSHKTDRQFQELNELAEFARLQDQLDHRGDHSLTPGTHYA
# From the text: as §1, §2
# [14] = target: T13, mOrai1-hOrai1 ECL2 chimeric protein (human/mouse chimera, UniProt Q8BWG9 1-304 (mouse entry)); experiment: FACS, 293EBNA, RFI-POC grade; parameters: concentration or dose not given beside the values
# T13 construct: mouse Orai1 with human ECL2; also called Ch
# T13 sequence (Q8BWG9 other isoform, or with tags, fused parts or gaps mutant): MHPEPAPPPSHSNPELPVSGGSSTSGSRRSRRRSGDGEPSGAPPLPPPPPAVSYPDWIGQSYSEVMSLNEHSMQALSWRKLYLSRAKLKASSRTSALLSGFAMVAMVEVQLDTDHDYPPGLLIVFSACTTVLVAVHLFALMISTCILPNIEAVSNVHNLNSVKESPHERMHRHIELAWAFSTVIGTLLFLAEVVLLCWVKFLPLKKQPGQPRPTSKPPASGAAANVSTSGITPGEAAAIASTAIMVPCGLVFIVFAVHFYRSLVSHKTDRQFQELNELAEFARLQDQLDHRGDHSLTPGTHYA
# From the text: as §1, §2
# [15] = target: T14, mOrai1-hOrai1 ECL2 (HSD) protein (human/mouse chimera, UniProt Q8BWG9 1-304 (mouse entry)); experiment: FACS, 293EBNA, RFI-POC grade; parameters: concentration or dose not given beside the values
# T14 construct: also called Ch
# T14 sequence (Q8BWG9 other isoform, or with tags, fused parts or gaps): as the sequence (Q8BWG9 other isoform, or with tags, fused parts or gaps mutant) above, with V226H, T228D counted along it
# From the text: as §1, §2
# T1 sequence (Q96D31 other isoform, or with tags, fused parts or gaps): as the sequence (Q96D31 other isoform, or with tags, fused parts or gaps mutant) above, with K213S, P214K, A216P, E217A counted along it
# T2 sequence (Q96D31 other isoform, or with tags, fused parts or gaps): as the sequence (Q96D31 other isoform, or with tags, fused parts or gaps mutant) above, with R204K, A206P, S210R, K213S, P214K, A216P, E217A, V219G, I220A, V221A counted along it
percent of control (POC) of FACS Geo Mean [1] [%],percent of control (POC) of FACS Geo Mean [2] [%],Kd [3] [pM],"POC (percent of control, FACS Geo Mean relative to binding to Ch. 1) [4] [%]","POC (percent of control, FACS Geo Mean relative to binding to Ch. 1) [5] [%]","POC (percent of control, FACS Geo Mean relative to binding to Ch. 1) [6] [%]","POC (percent of control, FACS Geo Mean relative to binding to Ch. 1) [7] [%]","POC (percent of control, FACS Geo Mean relative to binding to Ch. 1) [8] [%]","POC (percent of control, FACS Geo Mean relative to binding to Ch. 1) [9] [%]","POC (percent of control, FACS Geo Mean relative to binding to Ch. 1) [10] [%]","POC (percent of control, FACS Geo Mean relative to binding to Ch. 1) [11] [%]",binding result [12],"POC (percent of control, FACS Geo Mean relative to binding to Ch. 1) [13] [%]","POC (percent of control, FACS Geo Mean relative to binding to Ch. 1) [14] [%]","POC (percent of control, FACS Geo Mean relative to binding to Ch. 1) [15] [%]",Binder
40 to 100,40 to 100,185,< 1,< 1,< 1,< 1,< 1,< 1,< 1,< 1,no binding (tested: 1 µg),40 to 100,40 to 100,40 to 100,"mAb 5F7.1 (antibody, human IgG2, lambda, fully human IgG2 lambda, Campaign 2) heavy: QVQLVQSGAEVKKPGASVKVPCKASGYTFTDYYINWVRQAPGQGLEWMGWINPNNGGTNYAQKFQGRVTMTRDTSISTAYMELRRLRSDDTAVYYCARERGGYEDWFDPWGQGTLVTVSSASTKGPSVFPLAPCSRSTSESTAALGCLVKDYFPEPVTVSWNSGALTSGVHTFPAVLQSSGLYSLSSVVTVPSSNFGTQTYTCNVDHKPSNTKVDKTVERKCCVECPPCPAPPVAGPSVFLFPPKPKDTLMISRTPEVTCVVVDVSHEDPEVQFNWYVDGVEVHNAKTKPREEQFNSTFRVVSVLTVVHQDWLNGKEYKCKVSNKGLPAPIEKTISKTKGQPREPQVYTLPPSREEMTKNQVSLTCLVKGFYPSDIAVEWESNGQPENNYKTTPPMLDSDGSFFLYSKLTVDKSRWQQGNVFSCSVMHEALHNHYTQKSLSLSPGK light: QSVLTQPPSVSGAPGQRVTISCTGSSSNIGAGFDVHWYQQLPVTAPKLLIYGNRNRPSGVPARFSGSKSGTSASLAITGLQAEDEAVYYCQSYDSSLTVFGGGTKLTVLGQPKANPTVTLFPPSSEELQANKATLVCLISDFYPGAVTVAWKADGSPVKAGVETTKPSKQSNNKYAASSYLSLTPEQWKSHRSYSCQVTHEGSTVEKTVAPTECS"
40 to 100,40 to 100,,< 1,< 1,< 1,< 1,< 1,< 1,< 1,< 1,no binding (tested: 1 µg),40 to 100,40 to 100,40 to 100,"mAb 5A1.1 (antibody, human IgG2, fully human, Campaign 2; lambda CL-1) heavy: QVQLVQSGAEVKKPGASVKVPCKASGYTFTDYYINWVRQAPGQGLEWMGWINPNNGGTNYAQKFQGRVTMTRDTSISTAYMELRRLRSDDTAVYYCARERGGYEDWFDPWGQGTLVTVSSASTKGPSVFPLAPCSRSTSESTAALGCLVKDYFPEPVTVSWNSGALTSGVHTFPAVLQSSGLYSLSSVVTVPSSNFGTQTYTCNVDHKPSNTKVDKTVERKCCVECPPCPAPPVAGPSVFLFPPKPKDTLMISRTPEVTCVVVDVSHEDPEVQFNWYVDGVEVHNAKTKPREEQFNSTFRVVSVLTVVHQDWLNGKEYKCKVSNKGLPAPIEKTISKTKGQPREPQVYTLPPSREEMTKNQVSLTCLVKGFYPSDIAVEWESNGQPENNYKTTPPMLDSDGSFFLYSKLTVDKSRWQQGNVFSCSVMHEALHNHYTQKSLSLSPGK VL: QSVLTQPPSVSGAPGQRVTISCTGSSSNIGAGFDVHWYQQLPVTAPKLLIYGNRNRPSGVPARFSGSKSGTSASLAITGLQAEDEAVYYCQSYDSSLTVFGGGTKLTVL"
40 to 100,40 to 100,1200,< 1,< 1,< 1,< 1,< 1,< 1,< 1,< 1,no binding (tested: 1 µg),40 to 100,40 to 100,40 to 100,"mAb 5A4.2 (antibody, human IgG2, lambda, V domains shown, fully human IgG2 lambda, Campaign 2) VH: QVQLVQSGAEVKKPGASVKVSCKASGYTFTDYYMNWVRQAPGQGLEWMGWINPNSGGTKYAQKFQGRVTMTRDTSIRTAYMELSRLRSDDTAVYYCSREYGGNSDWFDPWGQGTLVTVSS VL: QSVLTQPPSVSGAPGQRVTISCTGSSSNIGAGYDVHWYQQLPGTAPKLLIYGNSNRPSGVPDRFSGSKSGTSASLAITGLQAEDEADYYCQSYDNRLSDSVVIGGGTKLTVQG"
5 to 40,40 to 100,,< 1,< 1,< 1,< 1,< 1,< 1,< 1,< 1,no binding (tested: 1 µg),40 to 100,40 to 100,40 to 100,"mAb 5B5.2 (antibody, human IgG2, lambda, V domains shown, fully human IgG2 lambda, Campaign 2; same chains as 5B5.1) VH: QVQLVQSGAEVKKPGASVKVSCKASGYTFTDYYINWVRQAPGQGLEWMGWINPNSGGTDYAQKFQGRVTMTRDTSIRTAYMELNRLTSDDTAVYYCAREYGGYEDWFDPWGQGTLVTVSS VL: QSVLTQPPSVSGAPGQRVTISCTGSNSNIGAGFDVHWYQQLPGTVPKLLIYGNNNRPSGVPDRFSGSKSGTSASLAITGLQAEDEADYYCQSYDSRLTVFGGGTKLTVLG"
